Reference: US20170137467A1 (CHROMOTEK, published 2017)
Square brackets hold non-standard residues; d marks the D form. GABA = NCCCC(=O)O

Tests used:
Test in all cases: peptide library pulldown on immobilized Nb, LC-MS of supernatant; ratio vs GFP-Nb control (1 = not captured, 0 = captured)
[1] = molecular target: T1, BC2T S8H library peptide (human)
T1 construct: also called BC2TS8X: H
T1 peptide: Ac-PDRKAAVHHWQQ-NH2
Description: (§1) In total, 12 different BC2T libraries displaying all 20 proteinogenic amino acids in one single position of the peptide were used in immunoprecipitation experiments. […] The direct comparison with the GFP-Nb made it possible to determine the quantitative degree of peptide capture without the need of labeled standards. […] The more peptide was captured the more the value approximates 0. It was not possible to discriminate between isoleucine (I) and leucine (L) peptide versions since these peptides are isobaric.
(§2) To investigate the binding specificity of the BC2T and derived mutants peptide libraries for each amino acid position of the sequence […] (SEQ ID NO:4) were synthesized with acetyl and amide groups located at the N-termini or C-termini respectively (Intavis). […] Incubations were performed in 300 μl PBS/0.01% CHAPS for 1 h on a HulaMixer (Life Technologies). Subsequent to a centrifugation step 10 μl supernatant were analyzed in a LC-MS procedure. Peptides were separated using an UltiMate3000 RSLCnano System (Thermo Scientific), composed of a C18 PepMap100μ-Precolumn (300 μm×5 mm; particle size: 5 μm; pore size: 100 Å—Thermo Scientific) and a C18 analytical column (Acclaim Rapid Separation LC (RSLC) Column: 150 mm×5 mm; particle size: 2.2 μm; pore size: 100 Å—Thermo Scientific). A step gradient was applied starting at 8% and ending after 20 min at 30% eluent B (80% acetonitrile, 20% H₂O, 0.1% formic acid).

[2] = molecular target: T2, BC2T S8E library peptide (human)
T2 construct: also called BC2TS8X: E
T2 peptide: Ac-PDRKAAVEHWQQ-NH2
Description: as §1, §2

[3] = molecular target: T3, BC2T H9(I/L) library peptide, version 1 (N-terminal acetyl, C-terminal amide)
T3 construct: Ile and Leu versions are isobaric; two versions resolved but not assigned; also called I/L1
Description: as §1, §2

[4] = molecular target: T4, BC2T H9S library peptide (human)
T4 peptide: Ac-PDRKAAVSSWQQ-NH2
Description: as §1, §2

[5] = molecular target: T5, BC2T H9T library peptide (human)
T5 peptide: Ac-PDRKAAVSTWQQ-NH2
Description: as §1, §2

[6] = molecular target: T6, BC2T H9Y library peptide (human)
T6 peptide: Ac-PDRKAAVSYWQQ-NH2
Description: as §1, §2

[7] = molecular target: T7, BC2T H9K library peptide (human)
T7 peptide: Ac-PDRKAAVSKWQQ-NH2
Description: as §1, §2

[8] = molecular target: T8, BC2T W10A library peptide (human)
T8 construct: also called BC2TW10X: A
T8 peptide: Ac-PDRKAAVSHAQQ-NH2
Description: as §1, §2

[9] = molecular target: T9, BC2T W10G library peptide (human)
T9 construct: also called BC2TW10X: G
T9 peptide: Ac-PDRKAAVSHGQQ-NH2
Description: as §1, §2

[10] = molecular target: T10, BC2T W10(I/L) library peptide, version 1 (N-terminal acetyl, C-terminal amide)
T10 construct: Ile and Leu versions are isobaric; two versions resolved but not assigned; also called BC2TW10X: I/L1
Description: as §1, §2

[11] = molecular target: T11, BC2T W10(I/L) library peptide, version 2 (N-terminal acetyl, C-terminal amide)
T11 construct: Ile and Leu versions are isobaric; two versions resolved but not assigned; also called BC2TW10X: I/L2
Description: as §1, §2

[12] = molecular target: T12, BC2T W10F library peptide (human)
T12 construct: also called BC2TW10X: F
T12 peptide: Ac-PDRKAAVSHFQQ-NH2
Description: as §1, §2

[13] = molecular target: T13, BC2T W10Y library peptide (human)
T13 construct: also called BC2TW10X: Y
T13 peptide: Ac-PDRKAAVSHYQQ-NH2
Description: as §1, §2

[14] = molecular target: T14, BC2T Q11G library peptide (human)
T14 peptide: Ac-PDRKAAVSHWGQ-NH2
Description: as §1, §2

[15] = molecular target: T15, BC2T Q11W library peptide (human)
T15 peptide: Ac-PDRKAAVSHWWQ-NH2
Description: as §1, §2

[16] = molecular target: T16, BC2T Q11C* library peptide (human, SMILES …)
T16 construct: also called C(Abu)
T16 peptide: Ac-PDRKAAVSHW[GABA]Q-NH2
Description: as §1, §2

[17] = molecular target: T17, BC2T Q11D library peptide (human)
T17 peptide: Ac-PDRKAAVSHWDQ-NH2
Description: as §1, §2

[18] = molecular target: T18, BC2T Q12A library peptide (human)
T18 peptide: Ac-PDRKAAVSHWQA-NH2
Description: as §1, §2

[19] = molecular target: T19, BC2T Q12W library peptide (human)
T19 peptide: Ac-PDRKAAVSHWQW-NH2
Description: as §1, §2

B1: BC2-Nb(R106E) (VHH)
VHH: QVQLVESGGGLVQPGGSLTLSCTASGFTLDHYDIGWFRQAPGKEREGVSCINNSDDDTYYADSVKGRFTIFMDNAKDTVYLQMNSLKPEDTAIYYCAEARGCKRGEYEYDFWGQGTQVTVSS
notes: Headlock mutant; immobilized on beads in the library pulldown
With B1 the ratio [1] was 0.9, the ratio [2] was 0.9 and the ratio [3] was 0.4. For the same binder, the ratio [4] was 0.4, the ratio [5] was 0.4 and the ratio [6] was 0.1. It also gave a ratio [7] of 0.2, a ratio [8] of 1.1 and a ratio [9] of 1.2. It also gave a ratio [10] of 1, a ratio [11] of 1 and a ratio [12] of 1. For the same binder, the ratio [13] was 1, the ratio [14] was 0.4 and the ratio [15] was 0.1. The ratio [16] was 0.2, the ratio [17] was 0.5 and the ratio [18] was 0.1. For the same binder, the ratio [19] was 0.2.
